T1: RHPN1, Q8TCX5
T1 sequence (Q8TCX5 508-602, limits assumed, looked up): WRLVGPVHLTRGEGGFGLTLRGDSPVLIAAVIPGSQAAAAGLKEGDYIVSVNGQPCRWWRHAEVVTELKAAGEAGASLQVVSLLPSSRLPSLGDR

T2: TIAM2, Q8IVF5
T2 sequence (Q8IVF5 885-986, limits assumed, looked up): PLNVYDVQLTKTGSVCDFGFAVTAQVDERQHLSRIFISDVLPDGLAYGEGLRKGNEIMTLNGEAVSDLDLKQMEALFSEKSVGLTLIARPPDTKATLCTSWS

T3: CARD11, Q9BXL7
T3 sequence (Q9BXL7 662-765, limits assumed, looked up): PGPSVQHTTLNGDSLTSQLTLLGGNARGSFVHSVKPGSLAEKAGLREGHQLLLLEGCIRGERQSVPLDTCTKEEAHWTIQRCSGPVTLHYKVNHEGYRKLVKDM

T4: GRIP1_7, Q9Y3R0
T4 sequence (Q9Y3R0 999-1096, limits assumed, looked up): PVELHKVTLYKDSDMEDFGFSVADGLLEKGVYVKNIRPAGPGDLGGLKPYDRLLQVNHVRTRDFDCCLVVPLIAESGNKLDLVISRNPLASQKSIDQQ

T5: GRIP1_4, Q9Y3R0
T5 sequence (Q9Y3R0 467-571, limits assumed, looked up): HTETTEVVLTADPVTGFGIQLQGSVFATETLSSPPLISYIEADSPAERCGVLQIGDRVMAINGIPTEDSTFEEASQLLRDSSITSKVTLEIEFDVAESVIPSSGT

T6: SNTA1, Q13424
T6 sequence (Q13424 82-180, limits assumed, looked up): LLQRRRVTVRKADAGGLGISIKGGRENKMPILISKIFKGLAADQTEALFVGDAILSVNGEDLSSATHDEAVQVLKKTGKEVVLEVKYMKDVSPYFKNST

T7: LRRC7, Q96NW7
T7 sequence (Q96NW7 1440-1537, limits assumed, looked up): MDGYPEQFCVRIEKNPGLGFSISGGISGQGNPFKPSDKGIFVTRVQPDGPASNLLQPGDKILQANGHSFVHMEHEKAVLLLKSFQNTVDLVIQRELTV

T8: SNTB1, Q13884
T8 sequence (Q13884 107-205, limits assumed, looked up): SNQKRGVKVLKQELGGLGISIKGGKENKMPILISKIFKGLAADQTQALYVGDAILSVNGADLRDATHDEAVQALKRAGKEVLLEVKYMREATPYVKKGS

T9: HTRA3, P83110
T9 sequence (P83110 354-453, limits assumed, looked up): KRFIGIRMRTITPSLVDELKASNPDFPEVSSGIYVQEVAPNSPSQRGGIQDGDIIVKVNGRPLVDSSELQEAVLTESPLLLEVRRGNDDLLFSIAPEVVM

T10: NHERF3_3, Q5T2W1
T10 sequence (Q5T2W1 238-333, limits assumed, looked up): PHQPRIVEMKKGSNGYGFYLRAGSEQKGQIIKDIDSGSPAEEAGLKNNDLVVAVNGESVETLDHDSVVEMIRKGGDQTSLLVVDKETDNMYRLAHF

T11: DFNB31_3, Q9P202
T11 sequence (Q9P202 811-907, limits assumed, looked up): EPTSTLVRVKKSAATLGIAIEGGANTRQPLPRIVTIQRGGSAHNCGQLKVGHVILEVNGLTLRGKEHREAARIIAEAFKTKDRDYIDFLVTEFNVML


Tests used:
Assay in all cases: holdup assay
Design in all cases: key: below the threshold = too weak to quantify, mostly under pKd 3.1 to 4
Conditions in all cases: plain residues with an end cap or a label only (N-terminal biotin on a linker: ado-ado)
GOPC, Q9HD26 = target: GOPC, Q9HD26
DLG2_3, Q15700 = target: DLG2_3, Q15700
FRMPD2_3, Q68DX3 = target: FRMPD2_3, Q68DX3
FRMPD2_3, Q68DX3, sequence (Q68DX3 1073-1166): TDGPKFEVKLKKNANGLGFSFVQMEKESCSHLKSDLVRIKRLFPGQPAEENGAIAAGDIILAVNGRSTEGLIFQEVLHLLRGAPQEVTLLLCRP

RHPN1, Q8TCX5 = target: T1, RHPN1, Q8TCX5
IL16_3, Q14005 = target: IL16_3, Q14005
IL16_3, Q14005, sequence (Q14005 1107-1207): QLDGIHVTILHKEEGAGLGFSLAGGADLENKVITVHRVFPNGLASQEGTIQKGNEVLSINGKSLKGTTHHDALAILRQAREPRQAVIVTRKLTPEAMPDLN

SCRIB_1, Q14160 = target: SCRIB_1, Q14160
SCRIB_1, Q14160, sequence (Q14160 718-814): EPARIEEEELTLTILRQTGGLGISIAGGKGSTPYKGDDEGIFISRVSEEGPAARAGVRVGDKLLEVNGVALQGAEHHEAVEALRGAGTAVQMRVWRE

Inadl_10, Q8NI35 = target: Inadl_10, Q8NI35
Inadl_10, Q8NI35, sequence (Q8NI35 1673-1763): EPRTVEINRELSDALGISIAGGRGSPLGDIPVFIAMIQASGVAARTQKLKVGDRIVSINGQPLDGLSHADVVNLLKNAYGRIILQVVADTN

TIAM2, Q8IVF5 = target: T2, TIAM2, Q8IVF5
CARD11, Q9BXL7 = target: T3, CARD11, Q9BXL7
GRIP1_7, Q9Y3R0 = target: T4, GRIP1_7, Q9Y3R0
GRIP1_4, Q9Y3R0 = target: T5, GRIP1_4, Q9Y3R0
GRIP2_4, Q9C0E4 = target: GRIP2_4, Q9C0E4
GRIP2_4, Q9C0E4, sequence (Q9C0E4 446-548): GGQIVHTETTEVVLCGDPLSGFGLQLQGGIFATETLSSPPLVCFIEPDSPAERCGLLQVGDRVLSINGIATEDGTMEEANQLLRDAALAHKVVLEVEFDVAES

DLG1_3, Q12959 = target: DLG1_3, Q12959
DLG1_3, Q12959, sequence (Q12959 457-571): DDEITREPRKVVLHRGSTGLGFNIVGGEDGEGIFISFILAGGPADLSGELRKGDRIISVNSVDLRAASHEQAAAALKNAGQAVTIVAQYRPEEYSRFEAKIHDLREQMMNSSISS

GRIP2_6, Q9C0E4 = target: GRIP2_6, Q9C0E4
GRIP2_6, Q9C0E4, sequence (Q9C0E4 648-740): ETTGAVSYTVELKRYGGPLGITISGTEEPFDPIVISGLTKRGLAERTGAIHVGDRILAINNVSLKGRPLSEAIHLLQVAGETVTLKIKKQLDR

SNX27, Q96L92 = target: SNX27, Q96L92
SNTA1, Q13424 = target: T6, SNTA1, Q13424
LRRC7, Q96NW7 = target: T7, LRRC7, Q96NW7
SNTB1, Q13884 = target: T8, SNTB1, Q13884
GORASP1, Q9BQQ3 = target: GORASP1, Q9BQQ3
GORASP1, Q9BQQ3, sequence (Q9BQQ3 1-208): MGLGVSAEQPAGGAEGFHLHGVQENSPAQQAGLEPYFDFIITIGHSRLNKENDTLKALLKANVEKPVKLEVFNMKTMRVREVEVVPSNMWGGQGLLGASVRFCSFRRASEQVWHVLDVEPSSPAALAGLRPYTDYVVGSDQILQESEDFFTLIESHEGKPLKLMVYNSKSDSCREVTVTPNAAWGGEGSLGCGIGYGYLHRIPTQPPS

GRASP, Q7Z6J2 = target: GRASP, Q7Z6J2
GRASP, Q7Z6J2, sequence (Q7Z6J2 96-193): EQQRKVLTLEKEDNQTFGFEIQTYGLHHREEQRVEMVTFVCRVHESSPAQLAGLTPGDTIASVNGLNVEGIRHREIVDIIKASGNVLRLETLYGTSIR

HTRA3, P83110 = target: T9, HTRA3, P83110
NHERF3_3, Q5T2W1 = target: T10, NHERF3_3, Q5T2W1
MAGI3_2, Q5TCQ9 = target: MAGI3_2, Q5TCQ9
MAGI3_2, Q5TCQ9, sequence (Q5TCQ9 398-503): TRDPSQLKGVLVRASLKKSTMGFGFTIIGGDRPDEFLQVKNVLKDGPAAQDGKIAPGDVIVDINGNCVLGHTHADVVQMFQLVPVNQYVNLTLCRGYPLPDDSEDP

Inadl_6, Q8NI35 = target: Inadl_6, Q8NI35
Inadl_6, Q8NI35, sequence (Q8NI35 1058-1167): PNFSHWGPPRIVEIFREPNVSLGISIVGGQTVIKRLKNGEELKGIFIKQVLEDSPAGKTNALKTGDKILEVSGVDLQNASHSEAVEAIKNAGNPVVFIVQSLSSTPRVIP

DFNB31_3, Q9P202 = target: T11, DFNB31_3, Q9P202
Inadl_2, Q8NI35 = target: Inadl_2, Q8NI35
Inadl_2, Q8NI35, sequence (Q8NI35 238-335): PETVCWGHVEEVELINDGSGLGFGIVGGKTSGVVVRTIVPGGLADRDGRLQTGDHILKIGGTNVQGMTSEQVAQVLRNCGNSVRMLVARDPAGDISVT

Binder	pKd (GOPC, Q9HD26)	pKd (DLG2_3, Q15700)	pKd (FRMPD2_3, Q68DX3)	pKd (RHPN1, Q8TCX5)	pKd (IL16_3, Q14005)	pKd (SCRIB_1, Q14160)	pKd (Inadl_10, Q8NI35)	pKd (TIAM2, Q8IVF5)	pKd (CARD11, Q9BXL7)	pKd (GRIP1_7, Q9Y3R0)	pKd (GRIP1_4, Q9Y3R0)	pKd (GRIP2_4, Q9C0E4)	pKd (DLG1_3, Q12959)	pKd (GRIP2_6, Q9C0E4)	pKd (SNX27, Q96L92)	pKd (SNTA1, Q13424)	pKd (LRRC7, Q96NW7)	pKd (SNTB1, Q13884)	pKd (GORASP1, Q9BQQ3)	pKd (GRASP, Q7Z6J2)	further results
SVTSERETNI [SLC16A7, O60669]	below the threshold	3.62	below the threshold	4.57	below the threshold	4.1	below the threshold	3.83	below the threshold	below the threshold	below the threshold	below the threshold	below the threshold	below the threshold	4.74	5.09	below the threshold	5.38	below the threshold	below the threshold	pKd (HTRA3, P83110): below the threshold; pKd (NHERF3_3, Q5T2W1): below the threshold; pKd (MAGI3_2, Q5TCQ9): below the threshold; pKd (Inadl_6, Q8NI35): below the threshold; pKd (DFNB31_3, Q9P202): 3.97; pKd (Inadl_2, Q8NI35): below the threshold
PSHPRLQTHV [KIRREL2, Q6UWL6]	below the threshold	4.26	below the threshold	4.11	below the threshold	3.88	below the threshold	3.73	below the threshold	below the threshold	below the threshold	below the threshold	below the threshold	below the threshold	below the threshold	below the threshold	below the threshold	3.48	below the threshold	4.18	pKd (HTRA3, P83110): below the threshold; pKd (NHERF3_3, Q5T2W1): below the threshold; pKd (MAGI3_2, Q5TCQ9): 5.1; pKd (Inadl_6, Q8NI35): below the threshold; pKd (DFNB31_3, Q9P202): 4; pKd (Inadl_2, Q8NI35): below the threshold
GIKKITSTAL [RPS6KA3, P51812]	4.5	3.63	3.5	3.93	below the threshold	4.94	3.66	below the threshold	below the threshold	3.56	3.62	below the threshold	3.99	3.88	4.93	3.94	below the threshold	4.23	3.59	4.68	pKd (HTRA3, P83110): below the threshold; pKd (NHERF3_3, Q5T2W1): below the threshold; pKd (MAGI3_2, Q5TCQ9): 4.08; pKd (Inadl_6, Q8NI35): 3.57; pKd (DFNB31_3, Q9P202): 4.23; pKd (Inadl_2, Q8NI35): below the threshold
NVYGIESVKI [GRIA2, P42262]	below the threshold	3.81	3.49	3.81	below the threshold	below the threshold	below the threshold	4.21	below the threshold	below the threshold	below the threshold	below the threshold	3.93	3.64	below the threshold	below the threshold	3.49	3.51	3.58	below the threshold	pKd (HTRA3, P83110): 3.64; pKd (NHERF3_3, Q5T2W1): below the threshold; pKd (MAGI3_2, Q5TCQ9): 3.62; pKd (Inadl_6, Q8NI35): below the threshold; pKd (DFNB31_3, Q9P202): below the threshold; pKd (Inadl_2, Q8NI35): below the threshold
GEDRSPPTAL [MKNK1, Q9BUB5]	3.5	below the threshold	below the threshold	below the threshold	below the threshold	below the threshold	below the threshold	below the threshold	below the threshold	below the threshold	below the threshold	below the threshold	below the threshold	below the threshold	below the threshold	below the threshold	below the threshold	3.51	below the threshold	4.62	pKd (HTRA3, P83110): below the threshold; pKd (NHERF3_3, Q5T2W1): below the threshold; pKd (MAGI3_2, Q5TCQ9): below the threshold; pKd (Inadl_6, Q8NI35): below the threshold; pKd (DFNB31_3, Q9P202): below the threshold; pKd (Inadl_2, Q8NI35): below the threshold
NNNVVKVDSV [MTNR1A, P48039]	below the threshold	3.54	below the threshold	below the threshold	below the threshold	below the threshold	below the threshold	3.77	below the threshold	below the threshold	below the threshold	below the threshold	below the threshold	below the threshold	below the threshold	below the threshold	below the threshold	below the threshold	below the threshold	below the threshold	pKd (HTRA3, P83110): below the threshold; pKd (NHERF3_3, Q5T2W1): below the threshold; pKd (MAGI3_2, Q5TCQ9): below the threshold; pKd (Inadl_6, Q8NI35): below the threshold; pKd (DFNB31_3, Q9P202): 3.93; pKd (Inadl_2, Q8NI35): below the threshold
